In assay [1] the target is SAR1A (human) (UniProt Q9NR31). Put plainly: liposome flotation.
The target of assay [2] is SAR1B>A-helix (human) (UniProt Q9Y6B6). Description: liposome flotation.

SAR1A (human), sequence (Q9NR31 whole entry): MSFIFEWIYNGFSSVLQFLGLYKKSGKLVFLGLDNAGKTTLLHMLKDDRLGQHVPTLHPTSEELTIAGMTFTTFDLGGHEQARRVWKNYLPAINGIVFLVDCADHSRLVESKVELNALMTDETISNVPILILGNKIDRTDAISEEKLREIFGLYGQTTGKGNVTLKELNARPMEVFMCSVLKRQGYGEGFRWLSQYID
SEC23A, sequence (Q15436 whole entry): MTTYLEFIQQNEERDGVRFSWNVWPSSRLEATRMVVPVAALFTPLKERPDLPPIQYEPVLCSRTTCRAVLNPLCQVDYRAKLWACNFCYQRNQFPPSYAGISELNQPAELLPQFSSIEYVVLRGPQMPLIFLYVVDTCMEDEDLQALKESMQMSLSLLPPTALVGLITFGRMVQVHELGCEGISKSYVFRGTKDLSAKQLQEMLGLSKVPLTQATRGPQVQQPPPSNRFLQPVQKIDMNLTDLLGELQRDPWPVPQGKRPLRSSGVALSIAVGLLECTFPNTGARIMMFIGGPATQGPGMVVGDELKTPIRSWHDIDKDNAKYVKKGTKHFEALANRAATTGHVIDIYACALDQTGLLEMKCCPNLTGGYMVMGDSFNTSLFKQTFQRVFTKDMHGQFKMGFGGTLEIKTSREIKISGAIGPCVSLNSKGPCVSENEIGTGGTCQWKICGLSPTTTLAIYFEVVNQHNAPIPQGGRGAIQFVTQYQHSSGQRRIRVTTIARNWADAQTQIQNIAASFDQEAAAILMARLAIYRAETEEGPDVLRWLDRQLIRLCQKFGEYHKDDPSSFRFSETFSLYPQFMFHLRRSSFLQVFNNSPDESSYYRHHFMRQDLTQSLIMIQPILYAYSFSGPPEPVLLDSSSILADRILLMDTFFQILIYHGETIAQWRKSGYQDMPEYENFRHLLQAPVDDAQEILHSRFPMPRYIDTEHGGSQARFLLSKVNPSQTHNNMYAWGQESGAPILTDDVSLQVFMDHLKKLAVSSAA

Substance “GTPase activating fragment of SEC31A (from UniProt O94979 1-1220) (domain or fragment)” returned a fold recruitment relative to SAR1B in assay [1] of 2 fold. With “SEC23A (from UniProt Q15436 1-765) (natural protein)”, the fold reduction of binding (reference as read: SAR1A>B-helix) in assay [2] was found to be 2 fold.

The values above are taken from paper doi:10.1101/2020.02.09.940833.
